US20220202899A1, “COMPOSITION FOR PREVENTION OR TREATMENT OF HAIR LOSS INCLUDING HAPLN1” (HAPLNSCIENCE INC., priority 2019, published 2022)

Columns and labels:
TβRI = TβRI protein in human hair germinal matrix cells treated with HAPLN1 and/or HA, then TGF-β2 (Western blotting); format: cell-based; details: HAPLN1 25 ng/mL; TGF-β2 2 ng/mL
Description: (§1) Human hair germinal matrix cells were dispensed into a poly-D-lysine 6-well plate at a concentration of 5.0×10^4 per well and cultured for 24 hours. After 24 hours, the medium was removed and replaced with a new serum-free medium. HAPLN1 was treated with 25 ng/mL, HA was treated with 25 μg/mL, and after 1 hour, TGF-β2 (2 ng/mL) was treated. After 23 hours, cells were collected, a lysis buffer (25 mM Tris-HCl, 1 mM EDTA, 0.1% Triton-X100, phosphatase inhibitor, and protease inhibitor) was added, and all the cells were broken through sonication. TβRI and TβRII in the sample were measured using Western blotting. The optical density of TβRII was compared to that of GAPDH using a densitometer.

[1] = tested on: human hair germinal matrix cells; assay: Cell proliferation of human hair germinal matrix cells, CCK-8 (Example 10); format: cell-based; details: HAPLN1 25 ng/mL and/or HA 25 μg/mL; TGF-β2 2 ng/mL, 23 hours
Description: Human hair germinal matrix cells were dispensed into a poly-D-lysine 96-well plate at a concentration of 2.0×10^4 per well and cultured for 24 hours. After 24 hours, the medium was removed and replaced with a new serum-free medium. HAPLN1 was treated with 25 ng/mL and HA with 25 μg/mL, incubated for 1 hour, and then stimulated with TGF-β2 (2 ng/mL) for 23 hours. CCK-8 (Enzo Biochem, NY, USA) was treated and incubated at 37° C. for 1 hour.

hair growth cycle = assay: Intraperitoneal systemic administration of HAPLN1, mouse hair growth; format: in vivo; details: 20-month-old C57 mice; 0.1 mg/kg intraperitoneally once every 3 days
Description: HAPLN1 in the body decreases with age. HAPLN1 was administered to 20-month-old C57 mice with a decrease in HAPLN1 in the body.
Since C57 mice had different hair growth cycles, the cycles of all mice were uniformly adjusted through two hair growth cycles (see the schedule of FIG. 19). Thereafter, HAPLN1 was injected intraperitoneally at 0.1 mg/kg once every 3 days.

TβRII [2] = assay: TβRII protein in human hair germinal matrix cells deficient in endogenous HA (4-MU); format: cell-based; details: 4-MU-treated cells; HAPLN1 25 ng/mL; TGF-β2 2 ng/mL
Description: 4-MU (4-methylumbelliferone) is an inhibitor of HA-producing hyaluronan synthase 2 (HAS2), which produces HA. In order to confirm the effect of HA produced in cells, HA production in cells was inhibited using 4-MU.
The human hair germinal matrix cells, in which the endogenous HA was inhibited by treating 4-MU, were dispensed into a poly-D-lysine 6-well plate at a concentration of 5.0×10^4 per well and cultured for 24 hours. After 24 hours, the medium was removed and replaced with a new serum-free medium. HAPLN1 was treated with 25 ng/mL, and after 1 hour, TGF-β2 (2 ng/mL) was treated. After 23 hours, cells were collected, a lysis buffer (25 mM Tris-HCl, 1 mM EDTA, 0.1% Triton-X100, phosphatase inhibitor, and protease inhibitor) was added, and all the cells were broken through sonication. HAS2 and TβRII in the sample were measured using Western blotting. The optical density of each of HAS2 and TβRII was compared to that of GAPDH using a densitometer.

p-c-Raf = p-c-Raf in human hair germinal matrix cells stimulated with TGF-β2 (Western blotting); format: cell-based; details: HAPLN1 25 ng/mL and/or HA 25 μg/mL; TGF-β2 2 ng/mL, 1 hour
Description: Human hair germinal matrix cells were dispensed into a poly-D-lysine 6-well plate at a concentration of 5.0×10^4 per well and cultured for 24 hours. After 24 hours, the medium was removed and replaced with a new serum-free medium. HAPLN1 was treated with 25 ng/mL and HA with 25 μg/mL, incubated for 23 hours, and then stimulated with TGF-β2 (2 ng/mL) for 1 hour. After collecting cells, a lysis buffer (25 mM Tris-HCl, 1 mM EDTA, 0.1% Triton-X100, phosphatase inhibitor, and protease inhibitor) was added, and all the cells were broken through sonication. p-ERK1/2, p-Smad2, p-MEK1/2, and p-c-Raf in the sample were measured using Western blotting. Optical densities of p-ERK1/2, p-Smad2, p-MEK1/2, and p-c-Raf were compared to those of ERK1/2, Smad2/3, MEK1, and c-Raf using a densitometer. Here, ERK1/2, Smad2/3, MEK1, and c-Raf were used as loading controls.

TβRII [3] = assay: TβRII protein in human hair germinal matrix cells treated with HAPLN1 and/or HA, then TGF-β2 (Western blotting); format: cell-based
Description: as §1

TβRII [4] = assay: TβRII protein in human hair germinal matrix cells treated with HAPLN1 by concentration (Western blotting); format: cell-based; details: 20 ng/mL of HAPLN1, 24 hours, serum-free medium
Description: HAPLN1 was treated on human hair germinal matrix cells by concentration. Specifically, human hair germinal matrix cells (HHGMC) were dispensed into a poly-D-lysine 6-well plate at 5.0×10^4 per well and cultured for 24 hours. After 24 hours, the medium was removed and replaced with a new serum-free medium. HAPLN1 was treated with 0, 5, 10, 20 ng/mL and incubated for 24 hours. After collecting cells, a lysis buffer (25 mM Tris-HCl, 1 mM EDTA, 0.1% Triton-X100, phosphatase inhibitor, and protease inhibitor) was added, and all the cells were broken through sonication. TβRII in the sample was measured using Western blotting. The optical density of TβRII was compared to that of GAPDH using a densitometer (that is, TβRII optical concentration GAPDH optical concentration). Here, GAPDH was used as a loading control.

B1: hyaluronan and proteoglycan link protein 1 (protein, UniProt P10915 16-354, looked up)
Hyaluronan and proteoglycan …: DHLSDNYTLDHDRAIHIQAENGPHLLVEAEQAKVFSHRGGNVTLPCKFYRDPTAFGSGIHKIRIKWTKLTSDYLKEVDVFVSMGYHKKTYGGYQGRVFLKGGSDSDASLVITDLTLEDYGRYKCEVIEGLEDDTVVVALDLQGVVFPYFPRLGRYNLNFHEAQQACLDQDAVIASFDQLYDAWRGGLDWCNAGWLSDGSVQYPITKPREPCGGQNTVPGVRNYGFWDKDKSRYDVFCFTSNFNGRFYYLIHPTKLTYDEAVQACLNDGAQIAKVGQIFAAWKILGYDRCDAGWLADGSVRYPISRPRRRCSPTEAAVRFVGFPDKKHKLYGVYCFRAYN
notes: extracellular matrix protein found in cartilage; stabilizes aggregates of hyaluronic acid and proteoglycans
With B1 the “concentration of TβRI” value (TβRI) was “no change”, the “cell proliferation (absorbance at 450 nm) compared to the control group” value [1] was “promoted” and the “entry into the anagen phase” value (hair growth cycle) was “entered the anagen phase in a short period of time”. The TβRII level (TβRII [2]) was “recovered”, the “c-Raf activity (p-c-Raf compared to c-Raf)” value (p-c-Raf) was “increased activities” and the “TβRII protein (optical density compared to GAPDH)” value (TβRII [3]; HAPLN1 25 ng/mL or HA 25 μg/mL alone, TGF-β2 2 ng/mL after 1 hour, 23 hours) was “significantly increased”. For the same molecule, the “TβRII protein, HAPLN1 treated together with HA” value (TβRII [3]; HAPLN1 25 ng/mL with HA 25 μg/mL, TGF-β2 2 ng/mL) was “further enhanced the increase of TβRII by HA” and the “TβRII protein (optical density compared to GAPDH)” value (TβRII [4]) was “increased”.
